The source of these data is patent US20220048967A1 (published 2022).

What all share (experiment): cell-based or functional assay
One assay concerns the target T1, human GIP receptor (human, UniProt P48546 22-466).
T1 sequence (looked up): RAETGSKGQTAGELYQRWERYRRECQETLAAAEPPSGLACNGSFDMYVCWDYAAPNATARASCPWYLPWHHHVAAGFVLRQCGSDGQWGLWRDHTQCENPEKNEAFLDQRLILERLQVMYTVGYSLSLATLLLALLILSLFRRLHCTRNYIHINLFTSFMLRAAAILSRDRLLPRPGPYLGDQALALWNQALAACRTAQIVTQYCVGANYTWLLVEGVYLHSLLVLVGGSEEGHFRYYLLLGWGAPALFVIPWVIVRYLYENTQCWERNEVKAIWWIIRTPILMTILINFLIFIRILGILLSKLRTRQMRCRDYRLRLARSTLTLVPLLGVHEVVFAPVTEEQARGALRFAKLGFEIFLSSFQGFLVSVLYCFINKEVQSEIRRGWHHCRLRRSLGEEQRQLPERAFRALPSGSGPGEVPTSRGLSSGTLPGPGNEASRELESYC

The target in assay [1] is human GLP-1 receptor (human, UniProt P43220 24-463).
For assay [2] the target is unchanged. This is another data set of the same source.

Residue numbers refer to the chain shown, from its start. Numbered stars: 1 amine (or outer) side, 2 acyl side, 3 side chain; on linkers, the order of the positions; unused ones are H or OH. Square brackets hold non-standard residues; d marks the D form. Side chains are listed from the residue outwards. Ends that are not written are not given here. * marks the point of attachment. C20 diacid = O=C(O)CCCCCCCCCCCCCCCCCCC(=O)*; C18 diacid = O=C(O)CCCCCCCCCCCCCCCCC(=O)*; γGlu = O=C(O)[C@H](CCC(=O)[*:2])N[*:1]; αMeF = C[C@](N)(Cc1ccccc1)C(=O)O; αMeK = C[C@](N)(CCCCN)C(=O)O; Dab = NCC[C@H](N)C(=O)O; AEEA = NCCOCCOCC(=O)O; Aib = CC(C)(N)C(=O)O

B1: Example 16 (peptide)
peptide: H[Aib]EGTFTSDYSILLDKK([AEEA-AEEA-γGlu-C20 diacid])AQ[Aib]AFIEYLIE[Aib]GPSSGAPPPS-NH2
modifications: N-terminus assumed
SMILES: CC[C@H](C)[C@H](NC(=O)[C@H](Cc1ccccc1)NC(=O)[C@H](C)NC(=O)C(C)(C)NC(=O)[C@H](CCC(N)=O)NC(=O)[C@H](C)NC(=O)[C@H](CCCCNC(=O)COCCOCCNC(=O)COCCOCCNC(=O)CC[C@H](NC(=O)CCCCCCCCCCCCCCCCCCC(=O)O)C(=O)O)NC(=O)[C@H](CCCCN)NC(=O)[C@H](CC(=O)O)NC(=O)[C@H](CC(C)C)NC(=O)[C@H](CC(C)C)NC(=O)[C@@H](NC(=O)[C@H](CO)NC(=O)[C@H](Cc1ccc(O)cc1)NC(=O)[C@H](CC(=O)O)NC(=O)[C@H](CO)NC(=O)[C@@H](NC(=O)[C@H](Cc1ccccc1)NC(=O)[C@@H](NC(=O)CNC(=O)[C@H](CCC(=O)O)NC(=O)C(C)(C)NC(=O)[C@@H](N)Cc1c[nH]cn1)[C@@H](C)O)[C@@H](C)O)[C@@H](C)CC)C(=O)N[C@@H](CCC(=O)O)C(=O)N[C@@H](Cc1ccc(O)cc1)C(=O)N[C@@H](CC(C)C)C(=O)N[C@H](C(=O)N[C@@H](CCC(=O)O)C(=O)NC(C)(C)C(=O)NCC(=O)N1CCC[C@H]1C(=O)N[C@@H](CO)C(=O)N[C@@H](CO)C(=O)NCC(=O)N[C@@H](C)C(=O)N1CCC[C@H]1C(=O)N1CCC[C@H]1C(=O)N1CCC[C@H]1C(=O)N[C@@H](CO)C(N)=O)[C@@H](C)CC
Take B1: in the assay with human GIP receptor, the “hGIPR cAMP EC50 ratio” value stood at 0.157 and the “hGIPR cAMP Rel EC50” value stood at 0.975 nM. In the assay with human GLP-1 receptor [1], the “hGLP1R cAMP EC50 ratio” value worked out at 1.43 and the “hGLP1R cAMP Rel EC50” value was 0.0437 nM.

B2: Example 18 (peptide)
peptide: H[Aib]EGTFTSDYSI[αMeF]LDKK([Dab-AEEA-Dab-AEEA-C20 diacid])AQ[αMeK]AFIQYLLA[Aib]GPSSGAPKPS-NH2
In the case of B2, in the assay with human GIP receptor, the “hGIPR cAMP EC50 ratio” value turned out to be 0.275 and the “hGIPR cAMP Rel EC50” value was 0.61 nM. In addition, in the assay with human GLP-1 receptor [1], the “hGLP1R cAMP EC50 ratio” value is 0.589 and the “hGLP1R cAMP Rel EC50” value stood at 0.0945 nM.

B3: Example 317 (peptide)
peptide: Y[Aib]EGTFTSDYSILLDKK([AEEA-AEEA-γGlu-C20 diacid])AQ[Aib]AFIEYLIAGGPSSG-NH2
modifications: N-terminus assumed
SMILES: CC[C@H](C)[C@H](NC(=O)[C@H](CC(C)C)NC(=O)[C@H](Cc1ccc(O)cc1)NC(=O)[C@H](CCC(=O)O)NC(=O)[C@@H](NC(=O)[C@H](Cc1ccccc1)NC(=O)[C@H](C)NC(=O)C(C)(C)NC(=O)[C@H](CCC(N)=O)NC(=O)[C@H](C)NC(=O)[C@H](CCCCNC(=O)COCCOCCNC(=O)COCCOCCNC(=O)CC[C@H](NC(=O)CCCCCCCCCCCCCCCCCCC(=O)O)C(=O)O)NC(=O)[C@H](CCCCN)NC(=O)[C@H](CC(=O)O)NC(=O)[C@H](CC(C)C)NC(=O)[C@H](CC(C)C)NC(=O)[C@@H](NC(=O)[C@H](CO)NC(=O)[C@H](Cc1ccc(O)cc1)NC(=O)[C@H](CC(=O)O)NC(=O)[C@H](CO)NC(=O)[C@@H](NC(=O)[C@H](Cc1ccccc1)NC(=O)[C@@H](NC(=O)CNC(=O)[C@H](CCC(=O)O)NC(=O)C(C)(C)NC(=O)[C@@H](N)Cc1ccc(O)cc1)[C@@H](C)O)[C@@H](C)O)[C@@H](C)CC)[C@@H](C)CC)C(=O)N[C@@H](C)C(=O)NCC(=O)NCC(=O)N1CCC[C@H]1C(=O)N[C@@H](CO)C(=O)N[C@@H](CO)C(=O)NCC(N)=O
Turning to B3, in the assay with human GLP-1 receptor [2], the “hGLP1R GTPgS % Top” value amounted to 53.7% and the “hGLP1R GTPgS Rel EC50” value was determined as 0.536 nM.

B4: Example 298 (peptide)
peptide: Y[Aib]EGTFTSDYSILLDKK([AEEA-AEEA-γGlu-C18 diacid])AQ[Aib]AFVEYLIEGGPSSG-NH2
modifications: N-terminus assumed
SMILES: CC[C@H](C)[C@H](NC(=O)[C@H](CC(C)C)NC(=O)[C@H](Cc1ccc(O)cc1)NC(=O)[C@H](CCC(=O)O)NC(=O)[C@@H](NC(=O)[C@H](Cc1ccccc1)NC(=O)[C@H](C)NC(=O)C(C)(C)NC(=O)[C@H](CCC(N)=O)NC(=O)[C@H](C)NC(=O)[C@H](CCCCNC(=O)COCCOCCNC(=O)COCCOCCNC(=O)CC[C@H](NC(=O)CCCCCCCCCCCCCCCCC(=O)O)C(=O)O)NC(=O)[C@H](CCCCN)NC(=O)[C@H](CC(=O)O)NC(=O)[C@H](CC(C)C)NC(=O)[C@H](CC(C)C)NC(=O)[C@@H](NC(=O)[C@H](CO)NC(=O)[C@H](Cc1ccc(O)cc1)NC(=O)[C@H](CC(=O)O)NC(=O)[C@H](CO)NC(=O)[C@@H](NC(=O)[C@H](Cc1ccccc1)NC(=O)[C@@H](NC(=O)CNC(=O)[C@H](CCC(=O)O)NC(=O)C(C)(C)NC(=O)[C@@H](N)Cc1ccc(O)cc1)[C@@H](C)O)[C@@H](C)O)[C@@H](C)CC)C(C)C)C(=O)N[C@@H](CCC(=O)O)C(=O)NCC(=O)NCC(=O)N1CCC[C@H]1C(=O)N[C@@H](CO)C(=O)N[C@@H](CO)C(=O)NCC(N)=O
With B4, in the assay with human GLP-1 receptor [2], the “hGLP1R GTPgS % Top” value is 57.3% and the “hGLP1R GTPgS Rel EC50” value is 1.03 nM.

B5: Example 17 (peptide)
peptide: H[Aib]EGTFTSDYSILLDKIAQK([AEEA-AEEA-γGlu-C20 diacid])AFIEYLLE[Aib]GPSSG-NH2
modifications: N-terminus assumed
SMILES: CC[C@H](C)[C@H](NC(=O)[C@H](CCCCN)NC(=O)[C@H](CC(=O)O)NC(=O)[C@H](CC(C)C)NC(=O)[C@H](CC(C)C)NC(=O)[C@@H](NC(=O)[C@H](CO)NC(=O)[C@H](Cc1ccc(O)cc1)NC(=O)[C@H](CC(=O)O)NC(=O)[C@H](CO)NC(=O)[C@@H](NC(=O)[C@H](Cc1ccccc1)NC(=O)[C@@H](NC(=O)CNC(=O)[C@H](CCC(=O)O)NC(=O)C(C)(C)NC(=O)[C@@H](N)Cc1c[nH]cn1)[C@@H](C)O)[C@@H](C)O)[C@@H](C)CC)C(=O)N[C@@H](C)C(=O)N[C@@H](CCC(N)=O)C(=O)N[C@@H](CCCCNC(=O)COCCOCCNC(=O)COCCOCCNC(=O)CC[C@H](NC(=O)CCCCCCCCCCCCCCCCCCC(=O)O)C(=O)O)C(=O)N[C@@H](C)C(=O)N[C@@H](Cc1ccccc1)C(=O)N[C@H](C(=O)N[C@@H](CCC(=O)O)C(=O)N[C@@H](Cc1ccc(O)cc1)C(=O)N[C@@H](CC(C)C)C(=O)N[C@@H](CC(C)C)C(=O)N[C@@H](CCC(=O)O)C(=O)NC(C)(C)C(=O)NCC(=O)N1CCC[C@H]1C(=O)N[C@@H](CO)C(=O)N[C@@H](CO)C(=O)NCC(N)=O)[C@@H](C)CC
Take B5: in the assay with human GIP receptor, the “hGIPR cAMP EC50 ratio” value turned out to be 0.0257 and the “hGIPR cAMP Rel EC50” value was found to be 5.81 nM. Moreover, in the assay with human GLP-1 receptor [1], the “hGLP1R cAMP EC50 ratio” value was 0.398 and the “hGLP1R cAMP Rel EC50” value stood at 0.152 nM.

B6: Example 3 (peptide)
peptide: YXEGTXTSDYSIXLDXKAQXEFIXYLIEGGPSSGAPPPS
modifications: Aib2, αMeF(2F)6, αMeL13, Orn16, K17 conjugated to (2-[2-(2-Amino-ethoxy)-ethoxy]-acetyl)2-(γ-Glu)-CO-(CH2)18-CO2H, Aib20, D-Glu24, C-terminal amide (NH2)
As to B6, in the assay with human GLP-1 receptor [2], the “hGLP1R GTPgS % Top” value is 95.4% and the “hGLP1R GTPgS Rel EC50” value came to 0.421 nM.

B7: Example 5 (peptide)
peptide: B6 peptide with Y10V, Y25X
modifications: Aib2, αMeF(2F)6, αMeL13, Orn16, K17 conjugated to (2-[2-(2-Amino-ethoxy)-ethoxy]-acetyl)2-(γ-Glu)-CO-(CH2)16-CO2H, Aib20, D-Glu24, αMeY25, C-terminal amide (NH2)
Consider B7, for which, in the assay with human GLP-1 receptor [2], the “hGLP1R GTPgS % Top” value turned out to be 91.3% and the “hGLP1R GTPgS Rel EC50” value turned out to be 0.196 nM.

B8: Example 304 (peptide)
peptide: YXEGTFTSDYSIXLDKKAQXEFIEYLIEGGPSSG
modifications: Aib2, αMeL13, K17 conjugated to (2-[2-(2-Amino-ethoxy)-ethoxy]-acetyl)2-(γ-Glu)-CO-(CH2)16-CO2H, Aib20, C-terminal amide (NH2)
As to B8, in the assay with human GLP-1 receptor [2], the “hGLP1R GTPgS % Top” value came to 77.1% and the “hGLP1R GTPgS Rel EC50” value stood at 0.561 nM.

B9: Example 306 (peptide)
peptide: B8 peptide with E28A
modifications: Aib2, αMeL13, K17 conjugated to (2-[2-(2-Amino-ethoxy)-ethoxy]-acetyl)2-(γ-Glu)-CO-(CH2)16-CO2H, Aib20, C-terminal amide (NH2)
Turning to B9, in the assay with human GLP-1 receptor [2], the “hGLP1R GTPgS % Top” value amounted to 76.1% and the “hGLP1R GTPgS Rel EC50” value came to 0.378 nM.

B10: Example 318 (peptide)
peptide: Y[Aib]EGTFTSDYSILLDKK([AEEA-AEEA-γGlu-C20 diacid])AQ[Aib]EFIEYLIAGGPSSG-NH2
modifications: N-terminus assumed
SMILES: CC[C@H](C)[C@H](NC(=O)[C@H](CC(C)C)NC(=O)[C@H](Cc1ccc(O)cc1)NC(=O)[C@H](CCC(=O)O)NC(=O)[C@@H](NC(=O)[C@H](Cc1ccccc1)NC(=O)[C@H](CCC(=O)O)NC(=O)C(C)(C)NC(=O)[C@H](CCC(N)=O)NC(=O)[C@H](C)NC(=O)[C@H](CCCCNC(=O)COCCOCCNC(=O)COCCOCCNC(=O)CC[C@H](NC(=O)CCCCCCCCCCCCCCCCCCC(=O)O)C(=O)O)NC(=O)[C@H](CCCCN)NC(=O)[C@H](CC(=O)O)NC(=O)[C@H](CC(C)C)NC(=O)[C@H](CC(C)C)NC(=O)[C@@H](NC(=O)[C@H](CO)NC(=O)[C@H](Cc1ccc(O)cc1)NC(=O)[C@H](CC(=O)O)NC(=O)[C@H](CO)NC(=O)[C@@H](NC(=O)[C@H](Cc1ccccc1)NC(=O)[C@@H](NC(=O)CNC(=O)[C@H](CCC(=O)O)NC(=O)C(C)(C)NC(=O)[C@@H](N)Cc1ccc(O)cc1)[C@@H](C)O)[C@@H](C)O)[C@@H](C)CC)[C@@H](C)CC)C(=O)N[C@@H](C)C(=O)NCC(=O)NCC(=O)N1CCC[C@H]1C(=O)N[C@@H](CO)C(=O)N[C@@H](CO)C(=O)NCC(N)=O
As to B10, in the assay with human GLP-1 receptor [2], the “hGLP1R GTPgS % Top” value was found to be 58.4% and the “hGLP1R GTPgS Rel EC50” value was 0.415 nM.

B11: Example 19 (peptide)
peptide: H[Aib]EGTFTSDYSI[αMeF]LDKK([Dab-AEEA-Dab-AEEA-C20 diacid])AQ[αMeK]AFIQYLLA[Aib]GPSSGAPPPS-NH2
B11: in the assay with human GIP receptor, the “hGIPR cAMP EC50 ratio” value came out at 0.436 and the “hGIPR cAMP Rel EC50” value turned out to be 0.386 nM. In addition, in the assay with human GLP-1 receptor [1], the “hGLP1R cAMP EC50 ratio” value came out at 0.532 and the “hGLP1R cAMP Rel EC50” value is 0.104 nM.
